Measured values as given in article PMC3656113.

What was measured:
[1] = target: recombinant human PAFr coupled to the G-protein Giα3β1γ2 (UniProt P25105); test: ELISA
[2] = target: recombinant human PAFr coupled to the G-protein Giα2β1γ2 (UniProt P25105); test: ELISA
[3] = target: platelet activating factor receptor (PAFr) of 16HBE14 human bronchial epithelial cells (human (endogenous in 16HBE14)) (UniProt P25105)

pili of N. meningitidis strain 8013SBpptA8G (ChoP+) (natural protein)
> 2 fold: fold increase against pili of 8013SB WT [1] | fold increase against pili of 8013SB WT [2] | adherence of 8013SBpptA8G bacteria to Chem-1-PAFr cells, fold increase against 8013SB WT bacteria (fluorescence, 30 min) [3]
